According to paper PMC9122904, “Insights into the client protein release mechanism of the ATP-independent chaperone Spy” (Nature Communications, 2022):
Where a chain is given by its changes, count along the chain named. In names and notes the source's numbering stands.

Legend:
Assay in all cases: BLI; Octet RED96; client biotinylated and loaded on streptavidin sensors; Spy or Spy variant in solution at 0.25, 0.5, 1, 1.5 and 2 μM; 40 mM HEPES, 150 mM NaCl, pH 7.5; Kd calculated as koff/kon
Conditions in all cases: both partners purified
[1] = target: T1, Spy_(R50D) (UniProt P77754 24-161, R50D)
T1 construct: source: E. coli BL21 (DE3), purified (Ni-NTA, cation exchange, SEC); not shown: His6, N-terminal, cleaved; SUMO, N-terminal, cleaved
T1 sequence (looked up): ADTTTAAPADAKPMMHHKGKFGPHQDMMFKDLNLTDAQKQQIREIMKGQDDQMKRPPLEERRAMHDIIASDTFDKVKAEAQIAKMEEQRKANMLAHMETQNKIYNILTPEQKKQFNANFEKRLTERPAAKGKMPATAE
In short: (§1)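 Biolayer interferometry used an Octet RED96: client proteins biotinylated with EZ-link NHS-biotin (1:1 molar ratio) were loaded on streptavidin sensors, dipped into 40 mM HEPES, 150 mM NaCl, pH 7.5 containing Spy protein at 0.25, 0.5, 1, 1.5 and 2 μM, then moved to Spy-free buffer. Wavelength-shift association and dissociation curves were fitted in SigmaPlot 12.0, giving observed association rate and koff. kon came from observed rate versus Spy concentration; Kd was koff/kon.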

[2] = target: T2, Spy_(K54D R55D) (UniProt P77754 24-161, K54D | R55D)
T2 construct: source: E. coli BL21 (DE3), purified (Ni-NTA, cation exchange, SEC); not shown: His6, N-terminal, cleaved; SUMO, N-terminal, cleaved
T2 sequence (looked up): T1 sequence (looked up) with D50R, K54D, R55D
In short: as §1

[3] = target: T3, Spy_(R61D R62D) (UniProt P77754 24-161, R61D | R62D)
T3 construct: source: E. coli BL21 (DE3), purified (Ni-NTA, cation exchange, SEC); not shown: His6, N-terminal, cleaved; SUMO, N-terminal, cleaved
T3 sequence (looked up): T1 sequence (looked up) with D50R, R61D, R62D
In short: as §1

[4] = target: T4, Spy_(K75D) (UniProt P77754 24-161, K75D)
T4 construct: also called control protein; source: E. coli BL21 (DE3), purified (Ni-NTA, cation exchange, SEC); not shown: His6, N-terminal, cleaved; SUMO, N-terminal, cleaved
T4 sequence (looked up): T1 sequence (looked up) with D50R, K75D
In short: as §1

[5] = target: T5, Spy_(R89D) (UniProt P77754 24-161, R89D)
T5 construct: source: E. coli BL21 (DE3), purified (Ni-NTA, cation exchange, SEC); not shown: His6, N-terminal, cleaved; SUMO, N-terminal, cleaved
T5 sequence (looked up): T1 sequence (looked up) with D50R, R89D
In short: as §1

[6] = target: T6, Spy_(R89D D26K) (UniProt P77754 24-161, D26K | R89D)
T6 construct: also called D26K R89D; source: E. coli BL21 (DE3), purified (Ni-NTA, cation exchange, SEC); not shown: His6, N-terminal, cleaved; SUMO, N-terminal, cleaved
T6 sequence (looked up): T1 sequence (looked up) with D26K, D50R, R89D
In short: as §1

[7] = target: T7, Spy_(H96D) (UniProt P77754 24-161, H96D)
T7 construct: source: E. coli BL21 (DE3), purified (Ni-NTA, cation exchange, SEC); not shown: His6, N-terminal, cleaved; SUMO, N-terminal, cleaved
T7 sequence (looked up): T1 sequence (looked up) with D50R, H96D
In short: as §1

[8] = target: T8, Spy D26K H96D (UniProt P77754 24-161, D26K | H96D)
T8 construct: source: E. coli BL21 (DE3), purified (Ni-NTA, cation exchange, SEC); not shown: His6, N-terminal, cleaved; SUMO, N-terminal, cleaved
T8 sequence (looked up): T1 sequence (looked up) with D26K, D50R, H96D
In short: as §1

- koff [1]: 0.543 s⁻¹
- koff [2]: 0.0743 s⁻¹
- koff [3]: 0.0727 s⁻¹
- koff [4]: 0.183 s⁻¹
- koff [5]: 0.105 s⁻¹
- koff [6]: 0.2 s⁻¹
- koff [7]: 0.42 s⁻¹
- koff [8]: 0.172 s⁻¹
B1: Im7 H40W L53A I54A (natural protein)
chain: MELKNSISDYTEAEFVQLLKEIEKENVAATDDVLDVLLEWFVKITEHPDGTDAAYYPSDNRDDSPEGIVKEIKEWRAANGKPGFKQG
modifications: biotin (EZ-link NHS-biotin, 1:1 molar ratio of biotin to protein)
notes: Im7 (colicin E7 immunity protein) with H40W L53A I54A; Spy was made with an N-terminal His6-SUMO tag that was cleaved; also called Im7AAW; partially folded client; source: purified by a similar procedure to Spy
